Measurements taken from publication PMC2957832 (Biochemical and biophysical research communications, 2010).

Molecular target: the molecule itself
Assay: SEC

B1: Purβ core tryptic fragment (residues 29–305) (domain or fragment, mouse, UniProt O35295 29-305, looked up)
chain: GGGGGGGGPGGEQETQELASKRLDIQNKRFYLDVKQNAKGRFLKIAEVGAGGSKSRLTLSMAVAAEFRDSLGDFIEHYAQLGPSSPEQLAAGAEEGGGPRRALKSEFLVRENRKYYLDLKENQRGRFLRIRQTVNRGGGGFGGGPGPGGLQSGQTIALPAQGLIEFRDALAKLIDDYGGDEDELAGGPGGGAGGPGGGLYGELPEGTSITVDSKRFFFDVGCNKYGVFLRVSEVKPSYRNAITVPFKAWGKFGGAFCRYADEMKEIQERQRDKLYER
- stoichiometry N: 2
